Test [1] addresses hPD-1 expressed on Jurkat cells (human) (UniProt Q15116). The test is described as follows: flow cytometry on Jurkat PD-1 cells, competitor nivolumab at 100x molar excess.
For test [2] the target is unchanged. The test is described as follows: flow cytometry on Jurkat PD-1 cells, competitor pembrolizumab at 100x molar excess.

hPD-1 expressed on Jurkat cells (human), sequence (Q15116 25-288): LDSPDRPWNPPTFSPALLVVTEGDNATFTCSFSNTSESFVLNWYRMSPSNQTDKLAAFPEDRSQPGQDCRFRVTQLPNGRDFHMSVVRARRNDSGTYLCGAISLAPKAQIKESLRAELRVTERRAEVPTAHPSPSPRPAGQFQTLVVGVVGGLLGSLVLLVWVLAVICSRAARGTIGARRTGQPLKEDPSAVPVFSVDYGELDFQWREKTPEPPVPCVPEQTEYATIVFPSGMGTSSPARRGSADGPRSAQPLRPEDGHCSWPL

B1: XVT458-z2-m6 (antibody, human IgG1, V domains shown)
VH: VQLVQSGAEVKKPGASVKVSCKASGYTFTNFYIHWVRQAPGQGLEWMGSIYPNYGITAYNQKFKDRVTMTVDTSTSTAYMELRSLRSDDTAVYYCARGYSYAMDYWGQGTTVTVSS
VL: DIQMTQSPSSVSASVGDRVTITCSASQGISGDLNWYQQKPGKAPKLLIYHTSQLHSDVPSRFSGSGSGTDFTLTISSLQPEDFATYYCQGYSKDLLTFGGGTKLEIK
For B1, the signal inhibition in % in test [1] and in test [2] was 8.66% in each case.

Source of the values: EP4671273A1.
